Data from PMC7599888.

Target: Sulfolobus solfataricus poly(ADP-ribose) polymerase-like thermoprotein (PARPSso) (S. solfataricus)
Test: SDS-PAGE band shift with silver staining; PARPSso (3 ug, 65 pmol) mixed with Sso7 at 1:0.5, 1:1 and 1:3 mol/mol in 10 mM Na-phosphate/10 mM EDTA pH 7.5, 80 °C for 20 min (once at 45 °C); 5-12% gradient SDS-PAGE

Sulfolobus solfataricus poly(ADP-ribose) polymerase-like thermoprotein (PARPSso) (S. solfataricus), sequence (B3EWG9 whole entry): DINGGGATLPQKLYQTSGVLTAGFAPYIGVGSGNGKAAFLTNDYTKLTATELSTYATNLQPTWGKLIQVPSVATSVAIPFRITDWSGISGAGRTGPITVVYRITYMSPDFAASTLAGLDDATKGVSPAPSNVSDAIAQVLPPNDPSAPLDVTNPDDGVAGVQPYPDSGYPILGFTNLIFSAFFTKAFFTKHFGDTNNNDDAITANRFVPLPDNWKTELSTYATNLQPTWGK

stoichiometry N: 3
Substance: Sso7 protein (from UniProt P39476 1-64) (natural protein)
